Source: US20110300138A1 (published 2011)
Where two headings read alike, the source gives them in different places.

How the values were obtained:
Test in all cases: cell-based or functional assay
[1] = target: human TSH receptor (wild type), expressed on transfected CHO cells (human) (UniProt P16473)
[2] = target: human TSHR expressed in CHO cells (human) (UniProt P16473)
[3] = target: human TSH receptor (full length, wild type) expressed in CHO cells (human) (UniProt P16473)
[4] = target: human TSH receptor (full length, wild type) expressed in CHO cells (human) (UniProt P16473); remark: listed apart in the source
[5] = target: human TSH receptor (full length, wild type) expressed in CHO cells (human) (UniProt P16473); remark: listed apart in the source

% Inhibition; 9D33 IgG 0.01 µg/mL + T11 [1]: 17.1% | % Inhibition; 9D33 IgG 0.1 µg/mL + T11 [1]: 50.4% | % Inhibition; 9D33 IgG 1 µg/mL + T11 [1]: 87.7% | % Inhibition; 9D33 IgG 10 µg/mL + T11 [1]: 90.1% | % Inhibition; 9D33 IgG 100 µg/mL + T11 [1]: 94.8% | Cyclic AMP concentration; 9D33 IgG 0.01 µg/mL + T11 [1]: 20.9 pmol/mL | Cyclic AMP concentration; 9D33 IgG 0.1 µg/mL + T11 [1]: 12.5 pmol/mL | Cyclic AMP concentration; 9D33 IgG 1 µg/mL + T11 [1]: 3.1 pmol/mL | Cyclic AMP concentration; 9D33 IgG 10 µg/mL + T11 [1]: 2.5 pmol/mL | Cyclic AMP concentration; 9D33 IgG 100 µg/mL + T11 [1]: 2.1 pmol/mL | Cyclic AMP concentration; 9D33 IgG 100 µg/mL alone [1]: 1.3 pmol/mL | % Inhibition; 3 ng/mL pTSH + 0.001 µg/mL 9D33 IgG [2]: 13% | % Inhibition; 3 ng/mL pTSH + 0.01 µg/mL 9D33 IgG [2]: 5% | % Inhibition; 3 ng/mL pTSH + 0.1 µg/mL 9D33 IgG [2]: 28% | % Inhibition; 3 ng/mL pTSH + 1 µg/mL 9D33 IgG [2]: 67% | % Inhibition; 3 ng/mL pTSH + 10 µg/mL 9D33 IgG [2]: 87% | % Inhibition; 3 ng/mL pTSH + 100 µg/mL 9D33 IgG [2]: 95% | % Inhibition; T1 serum + 100 µg/mL 9D33 IgG [3]: 95.4% | % Inhibition; T2 serum + 100 µg/mL 9D33 IgG [3]: 96.8% | % Inhibition; T3 serum + 100 µg/mL 9D33 IgG [3]: 94.2% | Cyclic AMP concentration; 100 µg/mL 9D33 IgG alone [3]: 2.1 pmol/mL | Cyclic AMP concentration; HBD + 100 µg/mL 9D33 IgG [3]: 1.9 pmol/mL | Cyclic AMP concentration; T1 serum + 100 µg/mL 9D33 IgG [3]: 4.6 pmol/mL | Cyclic AMP concentration; T2 serum + 100 µg/mL 9D33 IgG [3]: 2 pmol/mL | Cyclic AMP concentration; T3 serum + 100 µg/mL 9D33 IgG [3]: 3.7 pmol/mL | % Inhibition; T10 serum + 100 µg/mL 9D33 IgG [4]: 95.4% | % Inhibition; T11 serum + 100 µg/mL 9D33 IgG [4]: 87.1% | % Inhibition; T12 serum + 100 µg/mL 9D33 IgG [4]: 91.7% | Cyclic AMP concentration; 100 µg/mL 9D33 IgG alone [4]: 1.9 pmol/mL | Cyclic AMP concentration; HBD + 100 µg/mL 9D33 IgG [4]: 3.2 pmol/mL | Cyclic AMP concentration; T10 serum + 100 µg/mL 9D33 IgG [4]: 2.6 pmol/mL | Cyclic AMP concentration; T11 serum + 100 µg/mL 9D33 IgG [4]: 5.3 pmol/mL | Cyclic AMP concentration; T12 serum + 100 µg/mL 9D33 IgG [4]: 3.6 pmol/mL | % Inhibition; T4 serum + 100 µg/mL 9D33 [5]: 94.8% | % Inhibition; T5 serum + 100 µg/mL 9D33 [5]: 95.6% | % Inhibition; T6 serum + 100 µg/mL 9D33 [5]: 94% | Cyclic AMP concentration; 100 µg/mL 9D33 alone [5]: 2 pmol/mL | Cyclic AMP concentration; HBD + 100 µg/mL 9D33 [5]: 3.9 pmol/mL | Cyclic AMP concentration; T4 serum + 100 µg/mL 9D33 [5]: 4.1 pmol/mL | Cyclic AMP concentration; T5 serum + 100 µg/mL 9D33 [5]: 2.9 pmol/mL | Cyclic AMP concentration; T6 serum + 100 µg/mL 9D33 [5]: 5 pmol/mL
Substance: 9D33 IgG (antibody)
